# IntAct's records for PubMed 29039417
# B1: Protein PTHB1 (Homo sapiens), Q3SYG4 (parent)
# chain: MSLFKARDWWSTILGDKEEFDQGCLCLANVDNSGNGQDKIIVGSFMGYLRIFSPHPAKTGDGAQAEDLLLEVDLRDPVLQVEVGKFVSGTEMLHLAVLHSRKLCVYSVSGTLGNVEHGNQCQMKLMYEHNLQRTACNMTYGSFGGVKGRDLICIQSMDGMLMVFEQESYAFGRFLPGFLLPGPLAYSSRTDSFLTVSSCQQVESYKYQVLAFATDADKRQETEQQKLGSGKRLVVDWTLNIGEQALDICIVSFNQSASSVFVLGERNFFCLKDNGQIRFMKKLDWSPSCFLPYCSVSEGTINTLIGNHNNMLHIYQDVTLKWATQLPHIPVAVRVGCLHDLKGVIVTLSDDGHLQCSYLGTDPSLFQAPNVQSRELNYDELDVEMKELQKIIKDVNKSQGVWPMTEREDDLNVSVVVSPNFDSVSQATDVEVGTDLVPSVTVKVTLQNRVILQKAKLSVYVQPPLELTCDQFTFEFMTPDLTRTVSFSVYLKRSYTPSELEGNAVVSYSRPTDRNPDGIPRVIQCKFRLPLKLICLPGQPSKTASHKITIDTNKSPVSLLSLFPGFASQSDDDQVNVMGFHFLGGARITVLASKTSQRYRIQSEQFEDLWLITNELILRLQEYFEKQGVKDFACSFSGSIPLQEYFELIDHHFELRINGEKLEELLSERAVQFRAIQRRLLARFKDKTPAPLQHLDTLLDGTYKQVIALADAVEENQGNLFQSFTRLKSATHLVILLIALWQKLSADQVAILEAAFLPLQEDTQELGWEETVDAAISHLLKTCLSKSSKEQALNLNSQLNIPKDTSQLKKHITLLCDRLSKGGRLCLSTDAAAPQTMVMPGGCTTIPESDLEERSVEQDSTELFTNHRHLTAETPRPEVSPLQGVSE
# partner: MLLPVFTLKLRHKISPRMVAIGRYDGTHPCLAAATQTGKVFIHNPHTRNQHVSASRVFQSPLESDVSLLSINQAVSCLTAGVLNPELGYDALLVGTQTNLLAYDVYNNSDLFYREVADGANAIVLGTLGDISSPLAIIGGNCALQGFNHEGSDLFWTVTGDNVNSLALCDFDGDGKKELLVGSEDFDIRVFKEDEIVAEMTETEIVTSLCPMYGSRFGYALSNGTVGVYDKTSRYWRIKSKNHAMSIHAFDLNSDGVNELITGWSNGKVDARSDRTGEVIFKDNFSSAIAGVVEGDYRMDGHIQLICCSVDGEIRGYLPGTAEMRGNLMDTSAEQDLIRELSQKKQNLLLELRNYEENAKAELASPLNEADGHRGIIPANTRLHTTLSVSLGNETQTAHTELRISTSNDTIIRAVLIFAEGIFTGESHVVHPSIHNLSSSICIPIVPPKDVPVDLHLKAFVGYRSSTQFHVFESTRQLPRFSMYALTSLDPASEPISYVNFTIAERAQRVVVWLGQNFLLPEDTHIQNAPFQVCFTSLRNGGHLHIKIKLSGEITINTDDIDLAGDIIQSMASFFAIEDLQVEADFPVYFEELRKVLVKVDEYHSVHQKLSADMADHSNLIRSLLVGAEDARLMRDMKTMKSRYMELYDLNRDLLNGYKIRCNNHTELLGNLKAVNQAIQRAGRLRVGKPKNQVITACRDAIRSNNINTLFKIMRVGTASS
# Variants of: B1
# Conditions: with bbs2_human BBS2, Q9BXC9
row,Variant,effect of a mutation on the interaction
1,E852K,with no effect
2,K626E,with no effect
3,H546K,with no effect
4,P520A,with no effect
5,E878K,with no effect
6,T874E,with no effect
7,F487A,with no effect
8,G518E,with no effect
9,L529K,with no effect
10,T482A,with no effect
11,N716E,with no effect
12,D513K,with no effect
13,Q705K,with no effect
14,S777E,with no effect
15,S439A,with no effect
16,M839E,with no effect
17,T805A,with no effect
18,M837A,with no effect
19,P479E,with no effect

row,Variant,effect of a mutation on the interaction
1,T861K,with no effect
2,Y490K,with no effect
3,V575A,with no effect
4,R726A,with no effect
5,K454E,with no effect
6,L737E,with no effect
7,S555K,with no effect
8,P530E,with no effect
9,A712K,with no effect
10,A544K,with no effect
11,I657K,with no effect
12,D696E,with no effect
13,Q569E,with no effect
14,T697E,with no effect
15,T473K,with no effect
16,N794K,with no effect
17,L815K,with no effect
18,R510E,with no effect
19,P419K,with no effect

row,Variant,effect of a mutation on the interaction
1,S507E,with no effect
2,Y460K,with no effect
3,E647K,with no effect
4,P516E,with no effect
5,T441E,with no effect
6,V885E,with no effect
7,Q672A,with no effect
8,D711E,with no effect
9,T552E,with no effect
10,T871K,with no effect
11,R854A,with no effect
12,T702E,with no effect
13,L536A,with no effect
14,V671K,with no effect
15,V671A,with no effect
16,T865K,with no effect
17,T865A,with no effect
18,C826E,with no effect

# The remaining lines, values ahead:
row,effect of a mutation on the interaction,Variant
1,with no effect,L863K
2,with no effect,A833K
3,with no effect,K809A
4,with no effect,F487K
5,with no effect,V749A
6,with no effect,A633E
7,with no effect,E761A
8,with no effect,A775K
9,with no effect,D773K
10,with no effect,T482K
11,with no effect,Q722K
12,with no effect,S785K
13,with no effect,W768A
14,with no effect,V734K
15,with no effect,T613A
16,with no effect,F864A
17,with no effect,I523K
18,with no effect,V415K
19,with no effect,P834A

row,effect of a mutation on the interaction,Variant
1,with no effect,I776A
2,with no effect,D686A
3,with no effect,F632K
4,disrupting interaction strength,T813C
5,with no effect,L825K
6,with no effect,D696A
7,with no effect,G822A
8,with no effect,Q574K
9,with no effect,N503K
10,with no effect,T484K
11,with no effect,L795E
12,with no effect,P537A
13,with no effect,Q760A
14,with no effect,K554A
15,with no effect,R824A
16,with no effect,F724K
17,with no effect,L757E
18,with no effect,L757K
19,with no effect,T589E
